# According to article PMC2746283, “BtubA-BtubB Heterodimer Is an Essential Intermediate in Protofilament Assembly” (PLoS ONE, 2009):
# T1: BtubB-N100E (Prosthecobacter (species  for …, UniProt Q8GCC1 1-426, N100E))
# T1 sequence: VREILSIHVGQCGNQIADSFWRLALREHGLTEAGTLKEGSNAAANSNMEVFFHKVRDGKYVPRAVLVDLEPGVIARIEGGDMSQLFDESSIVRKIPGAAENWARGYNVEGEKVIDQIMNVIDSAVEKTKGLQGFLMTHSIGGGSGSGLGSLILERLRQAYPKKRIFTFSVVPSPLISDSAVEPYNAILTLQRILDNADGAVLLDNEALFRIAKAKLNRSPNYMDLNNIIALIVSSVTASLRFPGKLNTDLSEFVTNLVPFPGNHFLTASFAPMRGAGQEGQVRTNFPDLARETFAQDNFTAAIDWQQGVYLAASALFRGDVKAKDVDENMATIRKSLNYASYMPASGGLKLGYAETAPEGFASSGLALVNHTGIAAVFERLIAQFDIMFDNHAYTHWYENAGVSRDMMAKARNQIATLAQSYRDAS
# B1: BtubA-V179K (natural protein, P. dejongeii)
# chain: MKVNNTIVVSIGQAGNQIAASFWKTVCLEHGIDPLTGQTAPGVAPRGNWSSFFSKLGESSSGSYVPRAIMVDLEPSVIDNVKATSGSLFNPANLISRTEGAGGNFAVGYLGAGREVLPEVMSRLDYEIDKCDNVGGIIVLHAIGGGTGSGFGALLIESLKEKYGEIPVLSCAVLPSPQKSSVVTEPYNTVFALNTLRRSADACLIFDNEALFDLAHRKWNIESPTVDDLNLLITEALAGITASMRFSGFLTVEITLRELLTNLVPQPSLHFLMCAFAPLTPPDRSKFEELGIEEMIKSLFDNGSVFAACSPMEGRFLSTAVLYRGIMEDKPLADAALAAMREKLPLTYWIPTAFKIGYVEQPGISHRKSMVLLANNTEIARVLDRICHNFDKLWQRKAFANWYLNEGMSEEQINVLRASAQELVQSYQVAEESGAKAKVQDSAGDTGMRAAAAGVSDDARGSMSLRDLVDRRR
# B2: BtubA, wild type (natural protein, P. dejongeii)
# chain: MKVNNTIVVSIGQAGNQIAASFWKTVCLEHGIDPLTGQTAPGVAPRGNWSSFFSKLGESSSGSYVPRAIMVDLEPSVIDNVKATSGSLFNPANLISRTEGAGGNFAVGYLGAGREVLPEVMSRLDYEIDKCDNVGGIIVLHAIGGGTGSGFGALLIESLKEKYGEIPVLSCAVLPSPQVSSVVTEPYNTVFALNTLRRSADACLIFDNEALFDLAHRKWNIESPTVDDLNLLITEALAGITASMRFSGFLTVEITLRELLTNLVPQPSLHFLMCAFAPLTPPDRSKFEELGIEEMIKSLFDNGSVFAACSPMEGRFLSTAVLYRGIMEDKPLADAALAAMREKLPLTYWIPTAFKIGYVEQPGISHRKSMVLLANNTEIARVLDRICHNFDKLWQRKAFANWYLNEGMSEEQINVLRASAQELVQSYQVAEESGAKAKVQDSAGDTGMRAAAAGVSDDARGSMSLRDLVDRRR
# B3: BtubB, wild type (natural protein)
# chain: VREILSIHVGQCGNQIADSFWRLALREHGLTEAGTLKEGSNAAANSNMEVFFHKVRDGKYVPRAVLVDLEPGVIARIEGGDMSQLFDESSIVRKIPGAANNWARGYNVEGEKVIDQIMNVIDSAVEKTKGLQGFLMTHSIGGGSGSGLGSLILERLRQAYPKKRIFTFSVVPSPLISDSAVEPYNAILTLQRILDNADGAVLLDNEALFRIAKAKLNRSPNYMDLNNIIALIVSSVTASLRFPGKLNTDLSEFVTNLVPFPGNHFLTASFAPMRGAGQEGQVRTNFPDLARETFAQDNFTAAIDWQQGVYLAASALFRGDVKAKDVDENMATIRKSLNYASYMPASGGLKLGYAETAPEGFASSGLALVNHTGIAAVFERLIAQFDIMFDNHAYTHWYENAGVSRDMMAKARNQIATLAQSYRDAS
# notes: BtubB, bacterial tubulin-like protein of Prosthecobacter; the species is printed only for BtubA (P. dejongeii); also called B-wt; BtubB WT; source: E. coli, purified as described previously [3], with an added Sephacryl HR-100 column step; not shown: His tag, N-terminal, kept
# B4: BtubB-D249K (natural protein)
# chain: VREILSIHVGQCGNQIADSFWRLALREHGLTEAGTLKEGSNAAANSNMEVFFHKVRDGKYVPRAVLVDLEPGVIARIEGGDMSQLFDESSIVRKIPGAANNWARGYNVEGEKVIDQIMNVIDSAVEKTKGLQGFLMTHSIGGGSGSGLGSLILERLRQAYPKKRIFTFSVVPSPLISDSAVEPYNAILTLQRILDNADGAVLLDNEALFRIAKAKLNRSPNYMDLNNIIALIVSSVTASLRFPGKLNTKLSEFVTNLVPFPGNHFLTASFAPMRGAGQEGQVRTNFPDLARETFAQDNFTAAIDWQQGVYLAASALFRGDVKAKDVDENMATIRKSLNYASYMPASGGLKLGYAETAPEGFASSGLALVNHTGIAAVFERLIAQFDIMFDNHAYTHWYENAGVSRDMMAKARNQIATLAQSYRDAS
# notes: BtubB of Prosthecobacter (species printed only for BtubA: P. dejongeii) with the point mutation D249K; The running text twice calls it BtubA-D249K; also called between-dimer mutant on the bottom of BtubB; source: E. coli, purified as described previously [3], with an added Sephacryl HR-100 column step; not shown: His tag, N-terminal, kept
# Columns and labels:
# BtubB-D249K = biological target: B4; assay: cell-based or functional assay
# BtubB, wild type = biological target: B3; assay: cell-based or functional assay
# BtubB-N100E = biological target: T1, BtubB-N100E; assay: cell-based or functional assay
# BtubA, wild type = biological target: B2; assay: AUC; sedimentation equilibrium of BtubA + BtubB mixtures, 20°C, 10,000-14,000 rpm, HMK buffer (50 mM Hepes, 5 mM MgAc, 350 mM KAc, 1 mM EGTA, pH 7.7), no GTP; molar ratios 1:4 to 4:1, each protein 8 to 32 µM; global fit to a monomer-dimer model (HeteroAnalysis); conditions: both partners purified
# BtubA-V179K = biological target: B1; assay: as above; conditions: both partners purified
Binder,"GTPase activity of the 1:1 mixture, per BtubB (GTP regeneration, coupled NADH assay, ∼29°C) (BtubB-D249K) [GTP min^−1 Btub^−1]","GTPase activity of the 1:1 mixture, per BtubB (GTP regeneration, coupled NADH assay, ∼29°C) (BtubB, wild type) [GTP min^−1 Btub^−1]",also measured
B1,0.079,0.072,
B2,0.077,,
"BtubA-E258K (natural protein, P. dejongeii) MKVNNTIVVSIGQAGNQIAASFWKTVCLEHGIDPLTGQTAPGVAPRGNWSSFFSKLGESSSGSYVPRAIMVDLEPSVIDNVKATSGSLFNPANLISRTEGAGGNFAVGYLGAGREVLPEVMSRLDYEIDKCDNVGGIIVLHAIGGGTGSGFGALLIESLKEKYGEIPVLSCAVLPSPQVSSVVTEPYNTVFALNTLRRSADACLIFDNEALFDLAHRKWNIESPTVDDLNLLITEALAGITASMRFSGFLTVEITLRKLLTNLVPQPSLHFLMCAFAPLTPPDRSKFEELGIEEMIKSLFDNGSVFAACSPMEGRFLSTAVLYRGIMEDKPLADAALAAMREKLPLTYWIPTAFKIGYVEQPGISHRKSMVLLANNTEIARVLDRICHNFDKLWQRKAFANWYLNEGMSEEQINVLRASAQELVQSYQVAEESGAKAKVQDSAGDTGMRAAAAGVSDDARGSMSLRDLVDRRR",,0.088,"GTPase activity of the 1:1 mixture, per BtubB (GTP regeneration, coupled NADH assay, ∼29°C) (BtubB-N100E): 0.098 GTP min^−1 Btub^−1"
B3,,,"Kd (BtubA, wild type): 7.3 µM"
B4,,,Kd (BtubA-V179K): 3.2 µM
